Results on 10 molecules are retold here after patent US11485991B2, “Multifunctional recombinant nucleotide dependent glycosyltransferase protein and its method of glycosylation thereof” (Council of Scientific & Industrial Research, priority 2016, dated 2022).

B1: GT-CTH D131A (protein)
chain: MGYSENFIANDWFNVEVFNKNKYTLTNQENKDVTELWLQILKGLKFPNELKETVSYSKNLKELSLKTHAEVSVCIIAKNEQDSIRKCINSIYEFSDEIIFIDTGSIDSTKKIVKEIASEKVKIFDYTWQDAFSDARNYSIQKASKEWILIIDADEYVSSDELIKLRLLIDMLDRFKFKDSLRVSCAIYQLDNVITHGQSRLFRNNNKIKYYGLIHEELRNNKGLDPIFNVESEITFFHDGYKEILRKEKCERNIRLLAKMLEKEPDNVRWAYLYCRDSFSINSNIDFEKILLPFLIKNMDESISCENILLTNYTHLILFLITKKYIIDGKSSLASKCIEVLEKMLPNSSDVTFYKFLNKQHSLYEQQFEFLKEVIQFRKNNEYDQYSQIGCNLLHYDLLISGLLFDVKSYDYSYQYFLKLDLANYFSELEIPDEYKMLINKYRENESLEHHHHHH
B2: GT-CTH D152A (protein)
chain: MGYSENFIANDWFNVEVFNKNKYTLTNQENKDVTELWLQILKGLKFPNELKETVSYSKNLKELSLKTHAEVSVCIIAKNEQDSIRKCINSIYEFSDEIIFIDTGSIDSTKKIVKEIASEKVKIFDYTWQDDFSDARNYSIQKASKEWILIIAADEYVSSDELIKLRLLIDMLDRFKFKDSLRVSCAIYQLDNVITHGQSRLFRNNNKIKYYGLIHEELRNNKGLDPIFNVESEITFFHDGYKEILRKEKCERNIRLLAKMLEKEPDNVRWAYLYCRDSFSINSNIDFEKILLPFLIKNMDESISCENILLTNYTHLILFLITKKYIIDGKSSLASKCIEVLEKMLPNSSDVTFYKFLNKQHSLYEQQFEFLKEVIQFRKNNEYDQYSQIGCNLLHYDLLISGLLFDVKSYDYSYQYFLKLDLANYFSELEIPDEYKMLINKYRENESLEHHHHHH
B3: GT-CTH R136A (protein)
chain: MGYSENFIANDWFNVEVFNKNKYTLTNQENKDVTELWLQILKGLKFPNELKETVSYSKNLKELSLKTHAEVSVCIIAKNEQDSIRKCINSIYEFSDEIIFIDTGSIDSTKKIVKEIASEKVKIFDYTWQDDFSDAANYSIQKASKEWILIIDADEYVSSDELIKLRLLIDMLDRFKFKDSLRVSCAIYQLDNVITHGQSRLFRNNNKIKYYGLIHEELRNNKGLDPIFNVESEITFFHDGYKEILRKEKCERNIRLLAKMLEKEPDNVRWAYLYCRDSFSINSNIDFEKILLPFLIKNMDESISCENILLTNYTHLILFLITKKYIIDGKSSLASKCIEVLEKMLPNSSDVTFYKFLNKQHSLYEQQFEFLKEVIQFRKNNEYDQYSQIGCNLLHYDLLISGLLFDVKSYDYSYQYFLKLDLANYFSELEIPDEYKMLINKYRENESLEHHHHHH
B4: GT-CTH F132A (protein)
chain: MGYSENFIANDWFNVEVFNKNKYTLTNQENKDVTELWLQILKGLKFPNELKETVSYSKNLKELSLKTHAEVSVCIIAKNEQDSIRKCINSIYEFSDEIIFIDTGSIDSTKKIVKEIASEKVKIFDYTWQDDASDARNYSIQKASKEWILIIDADEYVSSDELIKLRLLIDMLDRFKFKDSLRVSCAIYQLDNVITHGQSRLFRNNNKIKYYGLIHEELRNNKGLDPIFNVESEITFFHDGYKEILRKEKCERNIRLLAKMLEKEPDNVRWAYLYCRDSFSINSNIDFEKILLPFLIKNMDESISCENILLTNYTHLILFLITKKYIIDGKSSLASKCIEVLEKMLPNSSDVTFYKFLNKQHSLYEQQFEFLKEVIQFRKNNEYDQYSQIGCNLLHYDLLISGLLFDVKSYDYSYQYFLKLDLANYFSELEIPDEYKMLINKYRENESLEHHHHHH
B5: GT-CTH W147A (protein)
chain: MGYSENFIANDWFNVEVFNKNKYTLTNQENKDVTELWLQILKGLKFPNELKETVSYSKNLKELSLKTHAEVSVCIIAKNEQDSIRKCINSIYEFSDEIIFIDTGSIDSTKKIVKEIASEKVKIFDYTWQDDFSDARNYSIQKASKEAILIIDADEYVSSDELIKLRLLIDMLDRFKFKDSLRVSCAIYQLDNVITHGQSRLFRNNNKIKYYGLIHEELRNNKGLDPIFNVESEITFFHDGYKEILRKEKCERNIRLLAKMLEKEPDNVRWAYLYCRDSFSINSNIDFEKILLPFLIKNMDESISCENILLTNYTHLILFLITKKYIIDGKSSLASKCIEVLEKMLPNSSDVTFYKFLNKQHSLYEQQFEFLKEVIQFRKNNEYDQYSQIGCNLLHYDLLISGLLFDVKSYDYSYQYFLKLDLANYFSELEIPDEYKMLINKYRENESLEHHHHHH
B6: GT-CTH A153R (protein)
chain: MGYSENFIANDWFNVEVFNKNKYTLTNQENKDVTELWLQILKGLKFPNELKETVSYSKNLKELSLKTHAEVSVCIIAKNEQDSIRKCINSIYEFSDEIIFIDTGSIDSTKKIVKEIASEKVKIFDYTWQDDFSDARNYSIQKASKEWILIIDRDEYVSSDELIKLRLLIDMLDRFKFKDSLRVSCAIYQLDNVITHGQSRLFRNNNKIKYYGLIHEELRNNKGLDPIFNVESEITFFHDGYKEILRKEKCERNIRLLAKMLEKEPDNVRWAYLYCRDSFSINSNIDFEKILLPFLIKNMDESISCENILLTNYTHLILFLITKKYIIDGKSSLASKCIEVLEKMLPNSSDVTFYKFLNKQHSLYEQQFEFLKEVIQFRKNNEYDQYSQIGCNLLHYDLLISGLLFDVKSYDYSYQYFLKLDLANYFSELEIPDEYKMLINKYRENESLEHHHHHH
B7: GT-CTH D130A, D131A (protein)
chain: MGYSENFIANDWFNVEVFNKNKYTLTNQENKDVTELWLQILKGLKFPNELKETVSYSKNLKELSLKTHAEVSVCIIAKNEQDSIRKCINSIYEFSDEIIFIDTGSIDSTKKIVKEIASEKVKIFDYTWQAAFSDARNYSIQKASKEWILIIDADEYVSSDELIKLRLLIDMLDRFKFKDSLRVSCAIYQLDNVITHGQSRLFRNNNKIKYYGLIHEELRNNKGLDPIFNVESEITFFHDGYKEILRKEKCERNIRLLAKMLEKEPDNVRWAYLYCRDSFSINSNIDFEKILLPFLIKNMDESISCENILLTNYTHLILFLITKKYIIDGKSSLASKCIEVLEKMLPNSSDVTFYKFLNKQHSLYEQQFEFLKEVIQFRKNNEYDQYSQIGCNLLHYDLLISGLLFDVKSYDYSYQYFLKLDLANYFSELEIPDEYKMLINKYRENESLEHHHHHH
B8: GT-CTH D154A (protein)
chain: MGYSENFIANDWFNVEVFNKNKYTLTNQENKDVTELWLQILKGLKFPNELKETVSYSKNLKELSLKTHAEVSVCIIAKNEQDSIRKCINSIYEFSDEIIFIDTGSIDSTKKIVKEIASEKVKIFDYTWQDDFSDARNYSIQKASKEWILIIDAAEYVSSDELIKLRLLIDMLDRFKFKDSLRVSCAIYQLDNVITHGQSRLFRNNNKIKYYGLIHEELRNNKGLDPIFNVESEITFFHDGYKEILRKEKCERNIRLLAKMLEKEPDNVRWAYLYCRDSFSINSNIDFEKILLPFLIKNMDESISCENILLTNYTHLILFLITKKYIIDGKSSLASKCIEVLEKMLPNSSDVTFYKFLNKQHSLYEQQFEFLKEVIQFRKNNEYDQYSQIGCNLLHYDLLISGLLFDVKSYDYSYQYFLKLDLANYFSELEIPDEYKMLINKYRENESLEHHHHHH
B9: GT-CTH D131A, F132D (protein)
chain: MGYSENFIANDWFNVEVFNKNKYTLTNQENKDVTELWLQILKGLKFPNELKETVSYSKNLKELSLKTHAEVSVCIIAKNEQDSIRKCINSIYEFSDEIIFIDTGSIDSTKKIVKEIASEKVKIFDYTWQDADSDARNYSIQKASKEWILIIDADEYVSSDELIKLRLLIDMLDRFKFKDSLRVSCAIYQLDNVITHGQSRLFRNNNKIKYYGLIHEELRNNKGLDPIFNVESEITFFHDGYKEILRKEKCERNIRLLAKMLEKEPDNVRWAYLYCRDSFSINSNIDFEKILLPFLIKNMDESISCENILLTNYTHLILFLITKKYIIDGKSSLASKCIEVLEKMLPNSSDVTFYKFLNKQHSLYEQQFEFLKEVIQFRKNNEYDQYSQIGCNLLHYDLLISGLLFDVKSYDYSYQYFLKLDLANYFSELEIPDEYKMLINKYRENESLEHHHHHH
B10: GT-CTH Y241A (protein)
chain: MGYSENFIANDWFNVEVFNKNKYTLTNQENKDVTELWLQILKGLKFPNELKETVSYSKNLKELSLKTHAEVSVCIIAKNEQDSIRKCINSIYEFSDEIIFIDTGSIDSTKKIVKEIASEKVKIFDYTWQDDFSDARNYSIQKASKEWILIIDADEYVSSDELIKLRLLIDMLDRFKFKDSLRVSCAIYQLDNVITHGQSRLFRNNNKIKYYGLIHEELRNNKGLDPIFNVESEITFFHDGAKEILRKEKCERNIRLLAKMLEKEPDNVRWAYLYCRDSFSINSNIDFEKILLPFLIKNMDESISCENILLTNYTHLILFLITKKYIIDGKSSLASKCIEVLEKMLPNSSDVTFYKFLNKQHSLYEQQFEFLKEVIQFRKNNEYDQYSQIGCNLLHYDLLISGLLFDVKSYDYSYQYFLKLDLANYFSELEIPDEYKMLINKYRENESLEHHHHHH

The series concerns synthetic acceptor substrates. As to the kind of experiment: In vitro glycosyltransferase (GT) assay of GT-CTH mutants with MS detection of glycosylated product. The format is biochemical. The settings on record: purified mutant of GT-CTH, acceptor substrate and UDP-glucose, MS analysis. The protocol:
Purified recombinant nucleotide dependent glycosyltransferase (0.2 μM) is incubated with synthetic acceptor substrates (5 μM) and 100 μM UDP-glucose in a reaction buffer containing 20 mM HEPES, pH 7.5, 50 mM NaCl, 1 mM TCEP and 1 mM MgCl2. The reaction is incubated at 25° C. for 12 h. Each assay reaction was accompanied by control reaction (without enzyme). The reactions are quenched with 5% TFA to pH 2, desalted using ZipTip C18, and vacuum dried and analyzed using mass spectrometry.
Mass spectrometry has been used to detect glycosylation in product of glycosylation assay reactions using Matrix Assisted Laser Desorption Ionization Time of flight mass spectrometry (MALDI-TOF MS) and Liquid chromatography electrospray ionization mass spectrometry (LC/ESI-MS) techniques. MALDI-TOF MS has carried out at AB Sciex 5800 MALDI TOF/TOF and LC/ESI-MS has carried out at 6550 iFunnel QTOF LC/MS (Agilent Technologies) using Zorbax Eclipse plus C8 column (3.0×150 mm, 5μ) of Agilent technologies. For MALDI-TOF analysis and LC-ESI/MS analysis, vacuum dried samples are reconstituted in water and 0.1% formic acid respectively.
Various mutations are introduced in recombinant nucleotide dependent glycosyltransferase (GT-CTH) using side directed mutagenesis (Quick change lightning Mutagenesis kit, Agilent) using GTpET28a plasmid as template. The sequence of mutants is verified through DNA sequencing. The mutated recombinant plasmids are transformed into E. coli Lemo21(DE3) and E. coli BL21(DE3) cells for expression. The over expression, purification and functional analysis of mutants of recombinant nucleotide dependent glycosyltransferase proteins are performed using the above mentioned methods. The list of mutants of recombinant nucleotide dependent glycosyltransferase, created in accordance with present invention identifies D102, R136, W147, D152, A153, D154 residues critical for activity of recombinant nucleotide dependent glycosyltransferase (GT-CTH). Replacement of these residues to alanine results into abolishment of the glycosyltransferase activity.
Turning to B1, the “In vitro glycosyltransferase activity status” value is “Active”.
With B2, the “In vitro glycosyltransferase activity status” value was “Inactive”.
Consider B3, for which the “In vitro glycosyltransferase activity status” value is on record as “Inactive”.
Then B4, with “Active”; and B5, with “Inactive”.
Then B6, with “Inactive”; and B7, with “Inactive”; and B8, with “Inactive”.
B9: the “In vitro glycosyltransferase activity status” value is recorded as “Inactive”.
Regarding B10, the “In vitro glycosyltransferase activity status” value is on record as “Active”.
